In patent publication US7960115B2, “DNA binding protein” (Wright State University, priority 2001, dated 2011):

T1: DUE-B binding to dsDNA derived from the DUE sequence (Homo sapiens, UniProt Q8TEA8)
T1 construct: 6his (N); V5 (N); made in house; host or cells: baculovirus / SF9 insect cells
T1 sequence (Q8TEA8 1-209): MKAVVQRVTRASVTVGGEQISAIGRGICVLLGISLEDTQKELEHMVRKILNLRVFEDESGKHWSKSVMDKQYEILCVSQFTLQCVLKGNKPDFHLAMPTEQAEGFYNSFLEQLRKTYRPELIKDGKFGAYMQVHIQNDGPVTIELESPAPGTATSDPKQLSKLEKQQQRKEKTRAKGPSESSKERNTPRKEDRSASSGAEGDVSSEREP

B1: DUE-B: human DNA Unwinding Element binding protein (SEQ ID NO:2), baculovirus expressed, binds the c-myc replication origin DUE (protein, listed as Homo sapiens)
chain: MKAVVQRVTRASVTVGGEQISAIGRGICVLLGISLEDTQKELEHMVRKILNLRVFEDESGKHWSKSVMDKQYEILCVSQFTLQCVLKGNKPDFHLAMPTEQAEGFYNSFLEQLRKTYRPELIKDGKFGAYMQVHIQNDGPVTIELESPAPGTATSDPKQLSKLEKQQQRKEKTRAKGPSESSKERNTPRKEDRSASSGAEGDVSSEREP

Columns and labels:
[1] = target: T1, DUE-B binding to dsDNA derived from the DUE sequence; assay: Fluorescence polarization assay of DUE-B binding to dsDNA
Description: Described herein is the first generation of a novel assay for determining the effects of molecules on the association of DUE-B with double stranded DNA (dsDNA). This assay uses fluorescence polarization to measure the interaction of DUE-B with dsDNA. This assay consists of 4 components: • a) a dsDNA derived from the DUE sequence:
• Both the sense and antisense strands are labeled with FITC at the 3′ end using a 6 carbon spacer. • b) Purified DUE-B. Human DUE-B tagged at the amino terminus with the 6his and V5 tags is synthesized in baculovirus and purified using Ni^2+-Sepharose™ chromatography. • c) Reaction buffer (1×): […] Tris HCl (pH 7.5), 800 mM NaCl, 10 mM EDTA, 100 mM β-mercaptoethanol, 1% (w/v) Tween-20™. • d) Fluorescence polarization plate reader (Tecan Polarion™ or other equivalent device)
A mastermix is prepared consisting of 1× reaction buffer, 2 nM labeled oligo and 0.125 or 0.250 ug DUE-B per 100 ul of mastermix. Compounds (in this case steroids) are added to the bottom of a 96 well plate. 100 ul of mastermix is added to each well and allowed to equilibrate for 30 sec. Fluorescence polarization is then measured.
In FIG. 23A, the effect of increasing concentrations of DUE-B on the polarization of dsDNA was assessed. As expected, polarization of the dsDNA becomes saturated as the DUE-B protein concentration increases. […]

[2] = ATPase activity by thin layer chromatography; type: biochemical
Description: In FIG. 11, DUE-B expressed in baculovirus infected insect cells was chromotographed as in FIG. 8. To locate the eluted DUE-B, fractions were assayed by ELISA using DUE-B antibody or 6his antibody. ATPase activity was monitored by thin layer chromatography of alternate fractions incubated with gamma-^32P-ATP. […] In FIG. 12, time courses of ATPase activity were measured for three concentrations of DUE-B protein.
Purified DUE-B (200-1000 ng) expressed in bacteria or insect cells, or cell extracts from HeLa cells (˜500 ng) or Xenopus oocytes (˜500 ng), were chromatographed on a one-meter Sephacryl™ S-200 column. Protein elution was monitored by Western blot or by ELISA using antibodies to DUE-B or the his6 tag. ATPase activity was monitored by thin layer chromatography on PEI cellulose (Patrick, S. M., et al., Biochem. Biophys. Acta 1354:279-290, 1997). RNA was isolated using an RNAeasy kit (Qiagen) and DUE-B mRNA expression was monitored by Northern blotting of total RNA electrophoresed on denaturing formaldehyde/agarose gels using a DUE-B cDNA probe labeled with alpha-^32P-dCTP by random primer extension.

[3] = test system: DNA replication in Xenopus oocyte extract; assay: Replication in Xenopus oocyte extracts; type: biochemical, Xenopus laevis

Molecule | effect on the dsDNA binding of DUE-B on retest ([1]; retest in two different concentrations of DUE-B, FIG. 24B) | increase in polarization of dsDNA by DUE-B ([1]; steroid at 10 uM, FIG. 24A) | ATPase activity ([2]; baculovirus expressed DUE-B, FIG. 12) | ATP hydrolyzed ([2]; present assay conditions) | effect on DNA replication, time course ([3]; double stranded DNA preincubated in extract, DUE-B added with alpha-32P-dCTP, FIG. 18A) | effect on replication of single stranded DNA ([3]; oocyte extract, FIG. 20D) | effect on replication of sperm chromatin ([3]; preincubated 30' with the extract versus added simultaneously with sperm chromatin, FIG. 19) | effect on MCM7 loading (pre-RC formation) on chromatin ([3]; sperm chromatin, anti-MCM7 immunoblot, FIG. 20C)
C[C@]12CC[C@@H]3c4ccc(O)cc4CC[C@H]3[C@@H]1CC(O)C2O (some centres unmarked) [Steroid E2850, 1,3,5(10)-estratrien-3,16,17-triol] | stimulatory effect of E2850 was duplicated | 100% |  |  |  |  |  | 
B1 |  |  | approximately 30 fmol gamma-32P-ATP hydrolyzed | > 0.5 fmol ATP per minute per fmol protein | transiently inhibited DNA replication | does not inhibit replication of single stranded DNA | more effective at inhibiting replication | does not inhibit MCM7 loading
